# Measured values from patent US20170281764A1 (JN BIOSCIENCES, published 2017).
# B1: HuTIG1-IgG1.AA (humanized IgG1/kappa form of TIG1, L234A/L235A) (antibody)
# heavy: not shown
# light: DIQMTQSPSSLSASVGDRVTITCRASKSISKYLAWYQQKPGKAPKLLIYSGSTLQSGVPSRFSGSGSGTDFTLTISSLQPEDFATYYCQQHNEYPWTFGGGTKVEIKRTVAAPSVFIFPPSDEQLKSGTASVVCLLNNFYPREAKVQWKVDNALQSGNSQESVTEQDSKDSTYSLSSTLTLSKADYEKHKVYACEVTHQGLSSPVTKSFNRGEC
# notes: Mature full chains; also called humanized TIG1
# Tests used:
# [1] = target: T1, extracellular region of human TIGIT fused to FLAG and GPI (hTIGIT-GPI), on the surface of NS0 cells (human); experiment: flow cytometry, competition with hCD155-Fc-FITC (125 ng/ml) for NS0-hTIGIT cells
# T1 construct: The GPI signal is processed when the anchor is attached; also called NS0-hTIGIT cells
# T1 chain: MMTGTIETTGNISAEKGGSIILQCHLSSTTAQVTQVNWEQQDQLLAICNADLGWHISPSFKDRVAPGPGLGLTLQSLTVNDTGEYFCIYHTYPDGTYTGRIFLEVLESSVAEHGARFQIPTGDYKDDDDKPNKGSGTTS
# Procedure: The activity of HuTIG1-IgG1.AA to block the interaction between human TIGIT and human CD155 was analyzed by flow cytometry using NS0-hTIGIT cells. […] After washing with FACS Buffer, NS0-hTIGIT cells were subjected to flow cytometry using a FACScan flow cytometer (BD Biosciences, San Jose, Calif.). To examine the binding of hCD155-Fc-FITC on the cells, MCF was obtained at each antibody concentration. […] The half maximal inhibitory concentration (IC₅₀) of HuTIG1-IgG1.AA to block the TIGIT-CD155 interaction was 67 ng/ml.
# [2] = target: T1, extracellular region of human TIGIT …; experiment: flow cytometry on NS0-hTIGIT cells
# Procedure: Binding of HuTIG1-IgG1.AA to human TIGIT was also examined by flow cytometry. NS0-hTIGIT cells (8×10⁵ cells) were incubated in 160 μl of FACS Buffer (PBS containing 0.5% bovine serum albumin and 0.05% sodium azide) in the presence (or absence) of various concentrations of HuTIG1-IgG1.AA, starting at 10 μg/ml and serial 2-fold dilutions, for 20 min at 4° C. After washing with FACS Buffer, HuTIG1-IgG1.AA binding on NS0-hTIGIT cells were detected with PE-labeled goat anti-human IgG antibody in FACS Buffer. After incubation for 20 min and washing with FACS Buffer, the cells were subjected to flow cytometry using a FACScan flow cytometer (BD Biosciences, San Jose, Calif.) to obtain the mean channel fluorescence (MCF) at each antibody concentration. […] The EC₅₀ value was 60 ng/ml.
# [3] = target: T2, HA-tagged human TIGIT with mutation H90A, on CHO-K1 cells (human, UniProt Q495A1 22-244); experiment: flow cytometry titration on CHO-K1 cells transiently expressing the HA-tagged TIGIT mutant, Alexa488 anti-human IgG detection, four-parameter fit of percent of control, nM is from the concentration axis and paragraph 252
# T2 construct: Built as for m17
# T2 sequence: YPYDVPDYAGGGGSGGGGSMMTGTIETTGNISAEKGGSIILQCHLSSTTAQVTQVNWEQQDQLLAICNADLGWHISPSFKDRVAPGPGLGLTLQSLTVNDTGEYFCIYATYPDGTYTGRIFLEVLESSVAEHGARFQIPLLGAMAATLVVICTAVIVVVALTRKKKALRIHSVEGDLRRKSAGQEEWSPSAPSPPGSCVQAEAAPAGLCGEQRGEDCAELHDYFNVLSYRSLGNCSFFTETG
# Procedure: For flow cytometry analysis of the anti-hTIGIT antibody binding epitope, HA-tagged human TIGIT proteins with or without single amino acid mutation were transiently transfected into CHO-K1 cells. After 24 hr, transfected cells were suspended in HBSS buffer (Thermo Fisher Scientific, Cat#14175095), and incubated with HuTIG1-IgG1.AA antibody at varying concentrations in 50 μL volume. After 1 hr incubation at 4° C., cells were washed and a second incubation with 50 μL Alexa488 conjugated anti-human IgG(H+L) secondary antibody (Thermo Fisher Scientific, Cat#A-11013) was performed to detect cells bound by antibody. Cells were incubated with an anti-HA antibody (Sigma, Cat# H7411) as a positive control, and non-transfected CHO-K1 cells were used as a negative control. The cells were analyzed on an Attune NxT Cytometer (Thermo Fisher Scientific) and the data were processed using FlowJo software. For each mutant, the saturating antibody binding MFI (mean fluorescence intensity) were normalized to 100% POC (percent of control), and no primary antibody binding control MFI were normalized to 0% POC. Data were then fit to a four parameter non-linear sigmoidal curve using GraphPad Prism 7 curve fitting using following formula: Y=Bottom+(Top−Bottom)/(1+10^{((Log EC}^₅₀^{-X)*HillSlope)}).
# All of these residues co-locate to one discrete region on the front ([…] structure of the TIGIT IgV extracellular domain (FIG. 28).
# [4] = target: T3, extracellular region of human TIGIT fused to the Fc region of human immunoglobulin gamma-1 chain (hTIGIT-Fc) (human); experiment: ELISA, plate coated with 5 µg/ml hTIGIT-Fc
# T3 construct: also called human TIGIT-Fc fusion protein; wild-type TIGIT-Fc
# Procedure: Binding of HuTIG1-IgG1.AA to human TIGIT was examined by ELISA. An ELISA plate was coated with 5 μg/ml hTIGIT-Fc in PBS (100 μl/well) at 4° C. overnight, washed with Wash Buffer (PBS containing 0.05% Tween 20), and blocked with 200 μl/well of SuperBlock Blocking Buffer (Thermo Fisher Scientific). After washing wells with Wash Buffer, HuTIG1-IgG1.AA, starting at 2.5 μg/ml and serial 2-fold dilutions in SuperBlock Blocking Buffer, was added for binding to plate-bound human TIGIT. After incubating the ELISA plate for 1 hr at room temperature and washing with Wash Buffer, bound antibodies were detected with 100 μl/well of HRP-conjugated goat anti-human kappa chain polyclonal antibody (Southern Biotech), 1/2,000-diluted in ELISA Buffer. After incubating for 30 min at room temperature and washing with Wash Buffer, color development was initiated with 100 μl/well of ABTS substrate and stopped with 100 μl/well of 2% oxalic acid. Absorbance was read at 405 nm. […] The half maximal effective concentration (EC₅₀) of HuTIG1-IgG1.AA for binding to TIGIT was 65 ng/ml.
# [5] = target: T4, human TIGIT on cells (Jurkat-TIGIT cells; human T cells, NK cells and other blood cells) (human, UniProt Q495A1 22-244); experiment: cell-based or functional assay
# T4 sequence: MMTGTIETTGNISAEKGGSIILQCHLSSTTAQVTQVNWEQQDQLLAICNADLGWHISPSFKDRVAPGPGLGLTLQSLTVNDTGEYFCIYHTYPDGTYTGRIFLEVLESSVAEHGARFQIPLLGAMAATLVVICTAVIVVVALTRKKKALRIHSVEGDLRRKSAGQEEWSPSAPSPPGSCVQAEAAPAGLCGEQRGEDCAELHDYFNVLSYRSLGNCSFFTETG
binder,measurement,setting,value
B1,IC50,[1],0.067 µg/mL
same,EC50,[2],0.06 µg/mL
same,EC50,[3],104 nM
same,EC50,[4],0.065 µg/mL
same,"increase of K562 target cell killing by purified NK cells, 10 µg/ml antibody, relative to 'No Antibody' or Rituxan",[5],28%
